Laboratory results reported in paper PMC6156662 (Proceedings of the National Academy of Sciences of the …, 2018).
Substitutions are numbered along the chain they refer to. In names and notes the source's numbering stands.

Columns and labels:
[1] = test system: cells stably expressing HA-CHMP4C constructs, with siRNA; experiment: Abscission checkpoint activation by drug; assay type: cell-based
HCT116^δCHMP4C cells [2] = experiment: Cell growth assay with aphidicolin; assay type: cell-based; settings: 30 nM aphidicolin
[3] = test system: HCT116^WT and HCT116^δCHMP4C cells; experiment: Cell-cycle arrest by flow cytometry, mitomycin C; assay type: cell-based; settings: 200 ng/mL mitomycin C, overnight
[4] = test system: HCT116^WT and HCT116^δCHMP4C cells; experiment: Mitotic arrest by flow cytometry and Western blotting, nocodazole; assay type: cell-based; settings: 50 ng/mL nocodazole
HCT116 cells [5] = settings: 0.1 μM reversine, cells with defective abscission checkpoint
HCT116 cells [6] = experiment: Anaphase chromosome missegregation; assay type: cell-based; settings: low-dose (0.1 μM) reversine, or p53 depletion by shRNA
HCT116^δCHMP4C cells [7] = experiment: Karyotyping, extreme aneuploidy in HCT116^δCHMP4C; assay type: cell-based; settings: 0.1 μM reversine; for protection against reversine-induced aneuploidy: reexpression in HCT116^δCHMP4C
HCT116^δCHMP4C cells [8] = experiment: Cell growth assay with reversine, HCT116^δCHMP4C; assay type: cell-based; settings: 0.1 μM reversine
HCT116^WT cells [9] = settings: 0.1 μM reversine, 48 h; <37 or >48 chromosomes; DMSO 1%
HCT116^WT cells [10] = settings: 0.1 μM reversine, 7 d
full-length ALIX = experiment: Yeast two-hybrid β-galactosidase assay with ALIX; settings: full-length CHMP4C, mean ± SD, n = 3
HeLa cells = experiment: Abscission checkpoint activity; settings: siCHMP4C; Nup153/Nup50 partial depletion; midbody-arrested cells
HCT116^δCHMP4C cells [11] = experiment: DNA damage: 53BP1 foci; assay type: cell-based; settings: reexpression in HCT116^δCHMP4C
HCT116 cells [12] = experiment: Cell growth assay after p53 depletion; assay type: cell-based; settings: p53 shRNA
[13] = test system: HeLa cells stably expressing YFP-Lap2β; experiment: Resolution time of YFP-Lap2β chromatin bridges, live-cell imaging; settings: siCHMP4C, endogenous CHMP4C 685 min
midbody of HeLa cells = experiment: HA-CHMP4C midbody recruitment; settings: with or without nucleoporin depletion
[14] = test system: HeLa mCherry-tubulin cells; experiment: Midbody abscission time, live-cell imaging; settings: siCHMP4C background
[15] = construct expressed in HCT116^δCHMP4C

## C[C@@]1(CO)[C@H](O)CC[C@@]2(C)[C@H]1CC[C@H]1C[C@@H]3C[C@@]12CC[C@]3(O)CO [aphidicolin, reference compound]
[1]; 30 nM aphidicolin, 24 h (replication stress)
  activation of the abscission checkpoint: triggers the abscission checkpoint in a CHMP4C-dependent manner
HCT116^δCHMP4C cells [2]; continuous
  effect on proliferation: reduced the proliferation of HCT116^δCHMP4C cells nearly twofold compared with HCT116^WT cells

## CO[C@@]12[C@H](COC(N)=O)C3=C(C(=O)C(C)=C(N)C3=O)N1C[C@@H]1N[C@@H]12 [mitomycin C]
[3]
  G2/M cell-cycle arrest: normal in HCT116^δCHMP4C cells

## COC(=O)Nc1nc2cc(C(=O)c3cccs3)ccc2[nH]1 [nocodazole]
[4]
  mitotic / G2/M arrest: did not observe a failure of HCT116^δCHMP4C cells to arrest

## c1nc2nc(Nc3ccc(N4CCOCC4)cc3)nc(NC3CCCCC3)c2[nH]1 [reversine]
HCT116 cells [5]
  micronuclei: did display a higher proportion of micronuclei
  multinucleation: did not induce a multinucleation phenotype
HCT116 cells [6]
  anaphase chromosome missegregation: doubled the frequency of anaphase chromosome missegregation
[1]; 0.1 μM reversine, 24 h
  activation of the abscission checkpoint: activated the abscission checkpoint in a CHMP4C-dependent fashion
HCT116^δCHMP4C cells [7]; 48 h, <37 or >48 chromosomes, DMSO 4%
  cells with extreme aneuploidy: 23%
HCT116^δCHMP4C cells [8]; over 7-d period
  reduction of cell growth: at least 70%
HCT116^WT cells [9]
  cells with extreme aneuploidy: 7%
HCT116^WT cells [10]
  reduction of cell growth: reduced HCT116^WT cell growth only modestly

B1: A232T full-length CHMP4C (protein, UniProt Q96CF2 1-233, looked up, variant A232T)
chain: MSKLGKFFKGGGSSKSRAAPSPQEALVRLRETEEMLGKKQEYLENRIQREIALAKKHGTQNKRAALQALKRKKRFEKQLTQIDGTLSTIEFQREALENSHTNTEVLRNMGFAAKAMKSVHENMDLNKIDDLMQEITEQQDIAQEISEAFSQRVGFGDDFDEDELMAELEELEQEELNKKMTNIRLPNVPSSSLPAQPNRKPGMSSTARRSRAASSQRAEEEDDDIKQLAAWTT
modifications: full-length
full-length ALIX
  interaction with ALIX: significantly reduced the interaction between full-length CHMP4C and ALIX

B2: L228A with W231A full-length CHMP4C (protein, UniProt Q96CF2 1-233, looked up, variant L228A W231A)
chain: B1 chain with L228A, W231A, T232A
modifications: full-length
full-length ALIX
  interaction with ALIX: complete loss of ALIX binding

B3: HA-CHMP4C^A232: HA-CHMP4C full length siRNA-resistant wild type, reference protein (protein, UniProt Q96CF2 1-233, looked up)
chain: B1 chain with T232A
modifications: full-length HA tag
HeLa cells
  abscission checkpoint activity: checkpoint activity was rescued in cells that expressed HA-CHMP4C^A232
HCT116^δCHMP4C cells [11]
  DNA damage, 53BP1 foci: reduced to control levels upon reexpression of HA-CHMP4C^A232
HCT116^δCHMP4C cells [7]
  protection against reversine-induced aneuploidy: protected against reversine-induced increases in aneuploidy
HCT116^δCHMP4C cells [8]; [15]
  restoration of growth in presence of reversine: restored by the expression of HA-CHMP4C^A232
HCT116 cells [12]
  growth after p53 depletion: reversed upon reexpression of CHMP4C^A232
[13]
  chromatin bridge resolution time, median: 800 min
Midbody of HeLa cells
  recruitment to midbody: recruited to the midbody at normal levels
HCT116^δCHMP4C cells [2]; [15]
  rescue of growth defect under aphidicolin: rescued by expression of HA-CHMP4C^A232

B4: HA-CHMP4C^T232: HA-CHMP4C full length siRNA-resistant T232 rs35094336 mutant (protein, UniProt Q96CF2 1-233, looked up, variant A232T)
chain: B1 chain
modifications: full-length HA tag
HeLa cells
  abscission checkpoint activity: does not support the abscission checkpoint
[14]
  abscission rate under normal growth conditions: proceeded through abscission more rapidly under normal growth conditions
HCT116^δCHMP4C cells [7]
  protection against reversine-induced aneuploidy: but not HA-CHMP4C^T232, protected against reversine-induced increases in aneuploidy
[13]
  chromatin bridge resolution time, median: 200 min
Midbody of HeLa cells
  recruitment to midbody: recruited to the midbody at normal levels
